# Key:
# [1] = target: HIV-1 Env of pseudovirus MGRM-D-016 (HIV-1); test: cell-based or functional assay
# [2] = target: HIV-1 Env of pseudovirus MGRM-D-026 (HIV-1); test: cell-based or functional assay
# [3] = target: HIV-1 Env of pseudovirus MGRM-F1-004 (HIV-1); test: cell-based or functional assay
# [4] = target: HIV-1 Env of pseudovirus MGRM-F1-017 (HIV-1); test: cell-based or functional assay
# [5] = target: HIV-1 envelope glycoprotein (Env) of isolate MG RM-AG-013 (HIV-1); test: cell-based or functional assay
# [6] = target: HIV-1 Env of isolate 6535.3 (Acute), clade B (HIV-1); test: cell-based or functional assay
# [7] = target: HIV-1 Env of isolate 92UG031 (clade A pseudovirus) (HIV-1); test: cell-based or functional assay
# [8] = target: HIV-1 Env of isolate JRCSF (Clade B) (HIV-1) (UniProt P20871); test: cell-based or functional assay
# [9] = target: HIV-1 Env of isolate MGRM-AG-011 (pseudovirus) (HIV-1); test: cell-based or functional assay
# [10] = target: HIV-1 Env of isolate MGRM-D-020 (clade D pseudovirus) (HIV-1); test: cell-based or functional assay
# [11] = target: HIV-1 Env of isolate MGRM-D-024 (clade D pseudovirus) (HIV-1); test: cell-based or functional assay
# [12] = target: HIV-1 Env of isolate MGRM-G-009 (subtype G) (HIV-1); test: cell-based or functional assay
# [13] = target: HIV-1 Env of isolate MGRM-G-019 (subtype G) (HIV-1); test: cell-based or functional assay
# [14] = target: HIV-1 Env of isolate TRJ0.58 (Acute), clade B (HIV-1); test: cell-based or functional assay
# [15] = target: HIV-1 Env of pseudovirus MGRM-F1-006 (clade F) (HIV-1); test: cell-based or functional assay
# [16] = target: HIV-1 MGRM-AE-006 Env (pseudovirus) (HIV-1); test: cell-based or functional assay
# [17] = target: HIV-1 MGRM-AE-008 Env (pseudovirus) (HIV-1); test: cell-based or functional assay
# [18] = target: HIV-1 envelope glycoprotein (Env) of isolate MGRM-C-006 (HIV-1); test: cell-based or functional assay
# [19] = target: HIV-1 Env of isolate MGRM-A-010 (subtype A) (HIV-1); test: cell-based or functional assay
# [20] = target: HIV-1 Env of isolate MGRM-A-012 (subtype A) (HIV-1); test: cell-based or functional assay
# [21] = target: HIV-1 Env of isolate MGRM-AG-002 (subtype AG) (HIV-1); test: cell-based or functional assay
# [22] = target: HIV-1 Env of isolate MGRM-D-014 (pseudovirus) (HIV-1); test: cell-based or functional assay
# [23] = target: HIV-1 Env of isolate MGRM-D-016 (pseudovirus) (HIV-1); test: cell-based or functional assay
# [24] = target: HIV-1 Env of isolate MGRM-D-024 (HIV-1); test: cell-based or functional assay
# [25] = target: HIV-1 Env of isolate MGRM-F1-023 (HIV-1); test: cell-based or functional assay
# [26] = target: HIV-1 Env of pseudovirus isolate MGRM-C-009 (clade C) (HIV-1); test: cell-based or functional assay
# [27] = target: HIV-1 Env of pseudovirus isolate MGRM-C-013 (clade C) (HIV-1); test: cell-based or functional assay
# [28] = target: HIV-1 Env of pseudovirus isolate MGRM-C-015 (clade C) (HIV-1); test: cell-based or functional assay
# [29] = target: HIV-1 Env of pseudovirus isolate MGRM-C-019 (clade C) (HIV-1); test: cell-based or functional assay
# [30] = target: HIV-1 JR-CSF Env I415A (HIV-1 (isolate JR-CSF)) (UniProt P20871); test: cell-based or functional assay
# [31] = target: HIV-1 JR-CSF Env I420A (HIV-1 (isolate JR-CSF)) (UniProt P20871); test: cell-based or functional assay
# [32] = target: HIV-1 JR-CSF Env N301A (HIV-1 (isolate JR-CSF, clade B)) (UniProt P20871); test: cell-based or functional assay
# [33] = target: HIV-1 JR-CSF Env T413A (HIV-1 (isolate JR-CSF)) (UniProt P20871); test: cell-based or functional assay
# [34] = target: JR-FL gp120 ΔV1/ΔV2 (HIV-1 JR-FL); test: ELISA, antigen-coated wells, mAb titrated; EC50 by nonlinear regression
# [35] = target: HIV-1 92BR020 Env (HIV-1); test: cell-based or functional assay
# [36] = target: HIV-1 MGRM-D-001 envelope protein (Env) on pseudovirus (HIV-1); test: cell-based or functional assay
# [37] = target: HIV-1 Env of isolate MGRM-F1-013 (pseudovirus) (HIV-1); test: cell-based or functional assay
# [38] = target: HIV-1 envelope glycoprotein (Env) of isolate 6535.3, on pseudovirus (HIV-1); test: cell-based or functional assay
# [39] = target: HIV-1 envelope glycoprotein (Env) of isolate MG RM-A-014, subtype A (HIV-1); test: cell-based or functional assay
# [40] = target: HIV-1 Env of isolate MG RM-A-005 (pseudovirus) (HIV-1); test: cell-based or functional assay
substance,measurement,setting,value
PGT-143 (4980_N08) (antibody),"IC50, pseudovirus neutralization",[1],> 50 µg/mL
same,"IC50, pseudovirus neutralization",[2],44.6 µg/mL
same,"IC50, pseudovirus neutralization",[3],0.036 µg/mL
same,"IC50, pseudovirus neutralization",[4],26.3 µg/mL
same,IC50,[5],> 50 µg/mL
PGT-142 (4995_E20) (antibody),"IC50, pseudovirus neutralization",[1],> 50 µg/mL
same,"IC50, pseudovirus neutralization",[2],12.5 µg/mL
same,"IC50, pseudovirus neutralization",[3],0.013 µg/mL
same,"IC50, pseudovirus neutralization",[4],23.5 µg/mL
same,IC50,[5],21.7 µg/mL
1496_C09 (PG9) (TCN-109) (antibody),"IC50 (µg/ml), pseudovirus neutralization",[6],0.22 µg/mL
same,"IC50 (µg/ml), pseudovirus neutralization",[7],3.08 µg/mL
same,IC90 (neutralization of pseudovirus),[8],< 0.0025 µg/mL
same,Neutralization IC80,[8],0.0181 µg/mL
same,Neutralization IC90,[8],0.0391 µg/mL
same,Neutralization IC95,[8],0.0798 µg/mL
same,neutralization IC50,[8],0.0048 µg/mL
same,"IC50 (µg/mL), pseudovirus neutralization",[9],0.007 µg/mL
same,"IC50, pseudovirus neutralization",[10],2.03 µg/mL
same,"IC50, pseudovirus neutralization",[11],0.03 µg/mL
same,"IC50 (µg/mL), pseudovirus neutralization",[12],10.7 µg/mL
same,"IC50 (µg/mL), pseudovirus neutralization",[13],14.6 µg/mL
same,"IC50 (µg/ml), pseudovirus neutralization",[14],0.43 µg/mL
same,IC50,[15],1.45 µg/mL
same,"IC50 (µg/ml), pseudovirus neutralization",[16],0.05 µg/mL
same,"IC50 (µg/ml), pseudovirus neutralization",[17],10.6 µg/mL
same,"IC50 (µg/ml), pseudovirus neutralization",[18],0.23 µg/mL
5114_A19 (PGT-128) (antibody),"IC50, pseudovirus neutralization",[19],0.005 µg/mL
same,"IC50, pseudovirus neutralization",[20],0.025 µg/mL
same,"IC50, pseudovirus neutralization",[21],4.99 µg/mL
same,"IC50 (µg/mL), pseudovirus neutralization",[22],0.013 µg/mL
same,"IC50 (µg/mL), pseudovirus neutralization",[23],> 50 µg/mL
same,"IC50 (µg/mL), pseudovirus neutralization",[24],0.067 µg/mL
same,"IC50 (µg/mL), pseudovirus neutralization",[25],0.007 µg/mL
same,"IC50, pseudovirus neutralization",[26],> 50 µg/mL
same,"IC50, pseudovirus neutralization",[27],> 50 µg/mL
same,"IC50, pseudovirus neutralization",[28],0.196 µg/mL
same,"IC50, pseudovirus neutralization",[29],0.01 µg/mL
same,Fold IC50 increase relative to wild-type (pseudovirus neutralization),[30],0.7 fold
same,Fold IC50 increase relative to wild-type (pseudovirus neutralization),[31],0.8 fold
same,Fold IC50 increase relative to wild-type,[32],10.7 fold
same,Fold IC50 increase relative to wild-type (pseudovirus neutralization),[33],1 fold
same,EC50,[34],0.3 µg/mL
PGT-144 (4970_K22) (antibody),"IC50, pseudovirus neutralization",[1],> 50 µg/mL
same,"IC50, pseudovirus neutralization",[2],> 50 µg/mL
same,"IC50, pseudovirus neutralization",[3],0.105 µg/mL
same,"IC50, pseudovirus neutralization",[4],> 50 µg/mL
same,IC50,[5],> 40 µg/mL
PGT-141 (4964_G22; 4993_K13) (antibody),"IC50, pseudovirus neutralization",[1],> 50 µg/mL
same,"IC50, pseudovirus neutralization",[2],32.5 µg/mL
same,"IC50, pseudovirus neutralization",[3],0.021 µg/mL
same,"IC50, pseudovirus neutralization",[4],30.8 µg/mL
same,IC50,[5],> 50 µg/mL
5329_C19 (PGT-136) (antibody),"IC50, pseudovirus neutralization",[35],> 10 µg/mL
same,"IC50, pseudovirus neutralization",[19],> 50 µg/mL
same,"IC50, pseudovirus neutralization",[20],> 50 µg/mL
same,"IC50, pseudovirus neutralization",[21],> 50 µg/mL
same,"IC50 (µg/mL), pseudovirus neutralization",[22],> 50 µg/mL
same,"IC50 (µg/mL), pseudovirus neutralization",[23],> 50 µg/mL
same,"IC50 (µg/mL), pseudovirus neutralization",[24],> 50 µg/mL
same,"IC50 (µg/mL), pseudovirus neutralization",[25],> 50 µg/mL
same,"IC50, pseudovirus neutralization",[26],> 50 µg/mL
same,"IC50, pseudovirus neutralization",[27],> 50 µg/mL
same,"IC50, pseudovirus neutralization",[28],11.1 µg/mL
same,"IC50, pseudovirus neutralization",[29],20.1 µg/mL
same,"IC50 (ug/mL), pseudovirus neutralization",[36],> 10 µg/mL
same,EC50,[34],0.3 µg/mL
4838_L06 (PGT-121) (antibody),"IC50 (µg/mL), pseudovirus neutralization",[37],0.083 µg/mL
same,"IC50, pseudovirus neutralization",[38],0.005 µg/mL
same,"IC50, pseudovirus neutralization",[39],0.003 µg/mL
same,EC50,[34],0.2 µg/mL
4970_K22 (PGT-144) (antibody),"IC50, pseudovirus neutralization",[35],> 10 µg/mL
same,"IC50 (µg/mL), single-round pseudovirus neutralization",[40],18.6 µg/mL
same,"IC50 (µg/mL), pseudovirus neutralization",[12],> 50 µg/mL
same,"IC50 (µg/mL), pseudovirus neutralization",[13],> 50 µg/mL

# Reference: patent publication US20240132578A1
